Test results reported in the DeepSol protein solubility set.

Assay: soluble on expression in E. coli; label from the status in PepcDB or PDB records

## GPGSMEVYRRITERVRGALWAHHGRLMSERQFHRILAFVYNNKYEYQIRFDRMEVVGREWGGRVEVVTTPAGYLKRVRVNPCVEDLTLYQQQQLILSAYASACADGRKLMEQAEMNIYKQFLKDLKPIVMGIRDNPEFYTVPENSIETIGGVLQTGDSNNLCHTHRTIPAAKARQPTDEVRARQEWEQKWINSPRGQSWALTLRGKTYFTLHGPQYRPRGAPGAKKETLPLDIPAPYTAMDEKRLLKKNWMAYLDNKHVAEVMWTRVKIADREKRQRLLQETGRAWHRPINEEAINRW
  soluble on expression in E. coli: not soluble

## QNKNSVELDGGAIFKNDKLIDKMDKSETEAYNFMIGKVSSGSMEVLNPETNRDFISLWILNSKTTTKGKFYGGKFHVKKIVNVKVAFLESQSPITYNKYMQKQIEQNAEKNIINNCNKIFNKYKEKNEDIFNVRDVYENIYKKGSPDIIKNTVIDIEPHVQIERSGKASTF
  soluble on expression in E. coli: not soluble

## MGGSHHHHHHRSESTVTEELKEGIDAVYPSLVGTADSKAEGIKNYFKLSFTLPEEQKSRTVGSEAPLKDVAQALSSRARYELFTEKETANPAFNGEVIKRYKELMEHGEGIADILRSRLAKFLNTKDVGKRFAQGTEANRWVGGKLLNIVEQDGDTFKYNEQLLQTAVLAGLQWRLTATSNTAIKDAKDVAAITGIDQALLPEGLVEQFDTGMTLTEAVSSLAQKIESYWGLSRNPNAPLGYTKGIPTAMAAEILAAFVESTDVVENIVDMSEIDPDNKKTIGLYTITELDSFDPINSFPTAIEEAVLVNPTEKMFFGDDIPPVANTQLRNPAVRNTPEQKAALKAEQATEFYVHTPMVQFYETLGKDRILELMGAGTLNKELLNDNHAKSLEGKNRSVEDSYNQLFSVIEQVRAQSEDISTVPIHYAYNMTRVGRMQMLGKYNPQSAKLVREAILPTKATLDLSNQNNEDFSAFQLGLAQALDIKVHTMTREVMSDELTKLLEGNLKPAIDMMVEFNTTGSLPENAVDVLNTALGDRKSFVALMALMEYSRYLVAEDKSAFVTPLYVEADGVTNGPINAMMLMTGGLFTPDWIRNIAKGGLFIGSPNKTMNEHRSTADNNDLYQASTNALMESLGKLRSNYASNMPIQSQIDSLLSLMDLFLPDINLGENGALELKRGIAKNPLTITIYGSGARGIAGKLVSSVTDAIYERMSDVLKARAKDPNISAAMAMFGKQAASEAHAEELLARFLKDMETLTSTVPVKRKGVLELQSTGTGAKGKINPKTYTIKGEQLKALQENMLHFFVEPLRNGITQTVGESLVYSTEQLQKATQIQSVVLEDMFKQRVQEKLAEKAKDPTWKKGDFLTQKELNDIQASLNNLAPMIETGSQTFYIAGSENAEVANQVLATNLDDRMRVPMSIYAPAQAGVAGIPFMTIGTGDGMMMQTLSTMKGAPKNTLKIFDGMNIGLNDITDASRKANEAVYTSWQGNPIKNVYESYAKFMKNVDFSKLSPEALEAIGKSALEYDQRENATVDDIANAASLIERNLRNIALGVDIRHKVLDKVNLSIDQMAAVGAPYQNNGKIDLSNMTPEQQADELNKLFREELEARKQKVAKA
  soluble on expression in E. coli: soluble

## GPGSMAKWNALSAEIEAARASGDHTKLLAHVHVGLQMLQEIGATNAPIQCESLLCMEASQAHYKMMQYDEALQCAERACESLLRGCKAELQDKAQIAEIEVFMGFVLCKQGGHSAAVEAQELLQKVLHWIDVDAKSAMPMQAVAAVNLRRSVLTGLGLSTTVQATTLASKGETAEAKVLYAKGLDTLIEALNQHIDENDVELVKMTLEAILTSFEGLDDVSQAVATCRKYISWCRRHDDASGVADGESMLTALCARQKIENPLEAEKAKETEEATK
  soluble on expression in E. coli: soluble

## MGSDKIHHHHHHMTSQDTADTGMADMDMTDTGMFLAKADIFASLTPEEDRAWSQLCTVESVSGGTIVLDYGIRPEIVLVVLSGALRATLRVSAGKELFLDMIGPGGTMAEMDAIRAEGYNLCLMATTDATLVRMPVDVFNDIIAQKHTVCLSLLSVLVQRMHVLHARICEFSYLDVRHRLYTTLLRLSKPSEDKPQQRTISPVIIHAALAEHVGARRETVSREMSRLVQDGVIERNRNAIVIRQPHELLRRLSQFDFA
  soluble on expression in E. coli: not soluble

## MSLKLNTSNSPFTEKQVTEINNLLQTLTESQQQWLSGFLLANSNDTTSDSNQQQLETEVWQQSQISEEQATSTTYMLQNKEPHIEANQRHVTVLYGSESGNAMRLAEIFSERLSDIGHQVVLMSMDEYDTTNIAQLEDLFIITSTHGEGEPPDNAWDFFEFLEDDNAPNLNHVRYSVLALGDQTYEFFCQAGKDVDALLENLGAERICKRVDCDIDYEEDAEKWMADIINMIDTTSEGIQSESVISESIKSAKEKKYSKLNPYQAEVLANINLNGTDSNKETRHIEFLLDDFSESYEPGDCIVALPQNDPELVEKLISMLGWDPQSPVPINDRGDTVPIVEALTSHFEFTKLTLPLLKNADIYFDNEELSERIQDESWAREYVINRDFIDLITDFPTIELQPENMYQILRKLPPREYSISSSFMATPDEVHITVGTVRYQAHGRERKGVCSVHFAERIKPGDIVPIYLKKNPNFKFPMKQDIPVIMIGPGTGIAPFRAYLQEREELGMTGKTWLFFGDQHRSSDFLYEEEIEEWLENGNLTRVDLAFSRDQEHKEYVQHRIMEESERFNEWIEQGAAIYICGDEKCMAKDVHQAIKDVLVKERHISQEEAELLLRQMKQQQRYQRDVYEGHHHHHH
  soluble on expression in E. coli: soluble

## MAVYTDITEDELRNFLTQYDVGSLTSYKGIAEGVENSNFLLHTTKDPLILTLYEKRVEKNDLPFFLGLMQHLAAKGLSCPLPLPRKDGELLGELSGRPAALISFLEGMWLRKPEAKHCREVGKALAAMHLASEGFEIKRPNALSVDGWKVLWDKSEERADEVEKGLREEIRPEIDYLAAHWPKDLPAGVIHADLFQDNVFFLGDELSGLIDFYFACNDLLAYDVSICLNAWCFEKDGAYNVTKGKALLEGYQSVRPLSEAELEALPLLSRGSALRFFLTRLYDWLTTPAGALVVKKDPLEYLRKLRFHRTIANVAEYGLAGE
  soluble on expression in E. coli: soluble

## MGSDKIHHHHHHMIGFEELNLQPGTRLQLMRHRGRTPVQYLSTFIGMERNEYLLLRLPKAQGTFLTFYDGEKVTVRVFSGVMISSFDASVIQTIHHPLNCLCISFPHAIQVKKIRREMRIKVDIEGRLGLQDRTILPVKLTNISATGCQILVDRDIGKVDGQVVLNFNIAQLHDDETSAMTLEAKVRNVVPAGLSGGASFLAGLEFVALESNVQLLVRHYVYECLVDRRQNLV
  soluble on expression in E. coli: not soluble

## GMMNTTTLDRYFDLFDASRTDEKAFDDLISLFSDEITFVLNGQEQHGIDAWKQFVRMVFTANQDIKHMYAGWVPSETGDTMETRWAVCGKSADGSVFTQDGTDIARLNADGKIVYLANVPDDTAMFNQYND
  soluble on expression in E. coli: soluble

## GMLDNAIPQGFEDAVELRRKNRETVVKYMNTKGQDRLRRHELFVEDGCGGLWTTDTGSPIVIRGKDKLAEHAVWSLKCFPDWEWYNIKVFETDDPNHFWVECDGHGKILFPGYPEGYYENHFLHSFELDDGKIKRNREFMNVFQQLRALSIPVPQIKREGIPT
  soluble on expression in E. coli: soluble

## MLTFLFELDKNLPQKDEPRYDAYSKGFIEGDVTICASDSVFFQKSCMKVAELGIYLGQWMEQVQHGQNVPMKYETADREEVILGFFYEEDHNQWIVFSSWQEFELQERIATATLIESVQRYLYELNKELRMIEYPVTFDQYLRGERMMQLSYKRPCDSKADTTPIEVYNGSEQVGVVRGYYKNTLMRALDFIPKIGSNIIYEIKDSKDNIRVIAKDVSRQRQRRILVMYKDNHDAEHEILVCDGKLLDANFLFTFTYKAEEYVVHKTLFGMGKLLRKGYVIADWNIRLEEDMYYIEMNVYDEDYMQDQYLLLGVFHAVLYG
  soluble on expression in E. coli: not soluble

## MGSDKIHHHHHHVDPVVLLTSVSALTQTQKPCRGRRNARDRIPTCSQETLEGKALALRVAVVGGGPAGSCAAETLVKAGIETYLIERKLDNAKPCGGAIPLCMVSEFDLPAEIIDRRVRNMKMISPSNREVNINLDNADEYIGMTRREVLDGFLRDRAAKLGTKLINGTLFRLELPKGDRDPYVLHYADHSNGSLEGIPSTLEVDVVIGADGANSRIAKAIDAGDYNYAIAFQERIRLPEDKMHYYENLAEMYVGGDVSPDFYAWVFPKYDHVAVGTGTMHVNQRLIKKLQAGIRARAANRLEGGKIIKVEAHPIPEHPRPRRVVGRAALVGDAAGYVTKSSGEGIYFAAKSGRMCAETIVETSNNGARIPTEADLKQYLRRWDKKYGTTYKVLDLLQTVFYRSDATREAFVEMCDDKDVQRLTFDSYLYKTVVPANPLVQLKITAKTLGSLLRGNALAPAEYKPIDAA
  soluble on expression in E. coli: not soluble

## MITTRTAKQCGQADYGWLQARYTFSFGHYFDPTLLGYASLRVLNQEVLAPGASFQPRTYPKVDILNLILDGEAEYRDSDGNHVQAKAGEALLLAAQPGISYSEHNISKVKPLTRMQLWLDACPERENTLVQKIPLLAAQQQLLASPDGEQNSLQLRQQVWVHHITLEKGESLNFQLHGPRAYLQSIHGTFHAMTHNEEREALTCGDGAFIRDEPNITLVADTPLRALLVDLPV
  soluble on expression in E. coli: not soluble

## RPDQVKLALDKPAYNDGDTAKVTVTPPAAGKGYLLIESSEGPLWWKEIDVPAEGKSYEIPLDKQWARHDLYVTALVIRPGERKANVTPKRAVGVLHLPLDRAQRKLALTVTAPEKMRPKQPLTLKVVAKNADGSVPEQVQVLVSAVDVGILNITRY
  soluble on expression in E. coli: not soluble

## MGSDKIHHHHHHMDASKNSDFKDTWLVVPCYNEATVIREVLENALKTFPNIVAVNDGSPDNSAEEIHAAGAHLVNHPVNLGQGAAIQTGIEYARKQPGAKYFVTFDADGQHQVKDVIRMVERLRAEDVDIIVGTRFGRPRQADDQVPLIKRLVLRTVVLLSPKTRRLGLTDAHNGLRVFNQKVAQEMNIRMNGMSHASEIVDQIDERGWRISEEPVDILYTEYSMSKGQSLLNGVNILADGFLARRLP
  soluble on expression in E. coli: not soluble

## MRIFVYGSLRQKQGNSHWMTNAQLLGDYRIDNYQLYSLGHYPGAVPGNGAVYGEVYRIDNATLAELDALRTRGGEYARQLIQTPYGSAWMYVYQRPVDGLTLIESGDWLDRNQP
  soluble on expression in E. coli: not soluble

## MTKKYLKVDVVSPLGSVFKGEADMVSLRGSAGEMGIAYGHTELLSTLPAGVVNVRKDQHTDVLYVSGGIVEVTPTRVTIMVDDMERAENLNQAEAEKARARAKEVLKNPDASKLDIEAANKRLKEADARLKALNSSNGLYYSKDD
  soluble on expression in E. coli: not soluble

## MSLGSNPPTKILDFLFLGGVSDATNPEFLRRENIVTILNVSREEYWSVDKGITIHPFPLEDNAEENIRKFFSHTYRLLEAARSSASPARPPCVLVHSRYGISRSVTIVLAYLMRRNGWSLNDALQYVMCRRPHVEPNVGFMNVLLSFQRDMDPQKRDIQRNEGHHHHHH
  soluble on expression in E. coli: not soluble

## MSLKVVIGYLALDDWEFESLFPTIEWKYLTHINASFARVKADGTLNINPVRKRIESVRETAHKHNVKILISLAKNSPGEFTTAINDPKARKELIQQIIAFTKEYKLDGFDIDYEEYDNWDKNFPSLLVFARGLYLAKEKNMLMTCAVNSRWLNYGTEWEQYFDYINLMSYDRGAFTDKPVQHASYDDFVKDLKYWNEQCRASKSKIVGGLPFYGYSWEESLQGAVDDVRGIRYSGILKHLGNEAADKDNIGKTYYNGRPTIANKCKFIKENDYAGVMIWQLFQDAHNDNYDLKLINVVGREMMEEGHHHHHH
  soluble on expression in E. coli: soluble

## MTKITYKVASEHPFPADAAAAAASLAAYEALDDVTKARVDQMVDWIMKNCLWQFHSRAWDRKRQNEGILGIAAKLLAGEPFTPETPEDRCYWVDSVTLQRAYLATCPWLATMSKGDIRALMKELHARVDYLTVTGSLNEELTDLHYLEHHHHHH
  soluble on expression in E. coli: not soluble

## MASSEGLASVDPWSFRQNFNIDSWLLSDSFSHDSDILAKALHRSISTSTESSPLSPSSFFDSSTAAVDFSPPQTLSNVSFGSDPEIPAASALGLGKRKRGPGVSGGKQTKRRSRVSNKKSQTTFITADAANFRQMVQQVTGAKFLGSSNSIFAPIVKPEPHRLASRLPPSCGNLDRSSAVPTLDTSSFLSNHHQENIITDLGAPTGSFHHQSSAGTTTANVGGGSSAVELDSYPSFPTLESWKVM
  soluble on expression in E. coli: not soluble
